The supplement of paper PMC9170038

System: MS2 coat protein
Test: apparent KD of MS2 coat protein; designed switch direction (-1 OFF switch, 1 ON switch): -1; higher = weaker reporter binding
In short: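 SNAP-549-labelled MS2 coat protein was titrated, doubling from 0.7 or 1.5 nM to 3 µM, over designed RNA switches transcribed on Illumina chips by stalled E. coli RNA polymerase. Runs were done without input, with 200 uM small-molecule ligand, or with an oligonucleotide input. Apparent KD is the per-design median over clusters of curve-fitted normalised fluorescence.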

[1] = input ligand: microRNA oligo, concentration not stated
[2] = Eterna round: R95, input ligand: FMN 200 uM
[3] = Eterna round: R95, input ligand: microRNA oligo, concentration not stated
[4] = Eterna round: R95, input ligand: none

| Sequence | apparent KD of MS2 coat protein (input ligand: FMN 200 uM) [nM] | apparent KD of MS2 coat protein (input ligand: none) [nM] | apparent KD of MS2 coat protein [1] [nM] | apparent KD of MS2 coat protein [2] [nM] | apparent KD of MS2 coat protein [3] [nM] | apparent KD of MS2 coat protein [4] [nM] |
| --- | --- | --- | --- | --- | --- | --- |
| GCACUGCGAGGAUAUACAUGAGGAUCACCCAUGUGUCGGCAGACAUGUUAUUUCUAAUGUAGAAGGCGCGUAAA [JR_Ex3_Sub002] (Eterna round: R97, puzzle: Exclusion 3) | 340 | 68.8 |  |  |  |  |
| GCACUGCGAGGAUAUACAUGAGGAUCACCCAUGUGUCGGCAGCCACGGUAGUACAAGUGUAGAAGGCGCGUUAG [EX3 #47] (Eterna round: R97, puzzle: Exclusion 3) | 140 | 69.1 |  |  |  |  |
| GCAGCAACUCUAAUCAACCAAACAUGAGGAUCACCCAUGUCUCAGGAUAUGGUCUGGAUUACAGGCCAGAAGGGAGAAAGCUGC [Eli exng3 - 044] (Eterna round: R96, puzzle: Exclusion NG 3) | 9 | 13.4 | 9.77 |  |  |  |
| GCAGCAUAGUUUACUAACUGUUACAUGAGGAUCACCCAUGUUCAGGAUAUGGUCUGGAUUACAGGCCAGAAGGGAGCAAGCUGC [Eli exng3 - 027] (Eterna round: R96, puzzle: Exclusion NG 3) | 13.3 | 13.8 | 10.7 |  |  |  |
| GCAGCAUAGUUUACUAACUGUUACAUGAGGAUCACCCAUGUUUAGGAUAUGGUCUGGAUUACAGGCCAGAAGGGAACAAGCUGC [Eli exng3 - 032] (Eterna round: R96, puzzle: Exclusion NG 3) |  |  | 10.3 |  |  |  |
| GCAGCUAGUUCAGGAUAUCAGCACGUUUAGUGCUGAGAAGGGAACAUGAGGAUCACCCAUGUGAUCAAUGCUGCAAUUUUAAUU [ENG1/12-A2] (Eterna round: R96, puzzle: Exclusion NG 1) | 1470 | 717 | 776 |  |  |  |
| GCAGGCGUCUAGGCUCGUCUUAUUUUGAGAAGAUUGAUAACAUGAGGAUCACCCAUGUUUGUGGGAGAGUUGGAGUG [JR_SV3TOV2_Sub014] (puzzle: Sensor v3, turn-off variant 2) |  |  |  | 159 | 258 | 209 |
| GCAUACUAAGGAUAUACAUGAGGAUCACCCAUGUUGCCAAAUGGCAGCAUCACCUGGAGUAGAAGGUAGAUGUA [Atanbi] (puzzle: Exclusion 3) |  |  |  |  | 29.7 |  |
| GCAUCCAAAGUGAGGAUAUACCUCUGGAUACAGAGGUAGAAGGCACAUGAGGAUCACCCAUGUUCCUAGGAUGC [Fiskers BMX 4 - 38] (puzzle: Brourd's mod of Exclusion 4) |  |  |  |  | 13.3 |  |
| GCAUCCAAAGUGAGGAUAUACCUCUGGAUACAUAGGUAGAAGGCACAUGAGGAUCACCCAUGUUCCUAGGAUGC [Fiskers BMX 4 - 32] (puzzle: Brourd's mod of Exclusion 4) |  |  |  |  | 25 |  |
| GCAUCCAUAGUGAGGAUAUACCUCUGGAUACAUAGGUAGAAGGCACAUGAGGAUCACCCAUGUUCCUAGGAUGC [Fiskers BMX 4 - 33] (puzzle: Brourd's mod of Exclusion 4) |  |  |  |  | 16.9 |  |
| GCAUUACAUGAGGAUCACCCAUGUGAGGAUAUUAGGGUCGCAAGCACGUCUAGCAGACUGAGAAGGCACGGGUG [Eternabot (L1) Solution 45] (Eterna round: R97, puzzle: Exclusion 1) | 139 | 192 |  |  |  |  |
| GCAUUGAGUGUGAGGAUAUGCUGGUCCUUGGAUCAGCAGAAGGCACAUGAGGAUCACCCAUGUGAAUACAAUGC [JL bmx4 3.13] (puzzle: Brourd's mod of Exclusion 4) |  |  |  |  | 18.9 |  |
| GCAUUUGAGCAGGAUAUAGCCUGAACAUAAUGGUUAGAAGGGCUCACAUGAGGAUCACCCAUGUGGUGUCCUAA [Rateria] (puzzle: Exclusion 6) |  |  |  |  | 11.6 |  |
| GCCGGAGCAGGAUAUCUAAUAUAUCACAUGAGGAUCACCCAUGUCCAGCGAAAGCUGGAGGGAGAAGGGCUCUGGC [Fiskers Ex 5 - 22] (Eterna round: R96, puzzle: Exclusion 5) | 47 | 143 | 99.1 |  |  |  |
| GCCGGAGCAGGAUAUCUAAUAUAUCACAUGAGGAUCACCCAUGUCCAGCGAAAGCUGGAGGGAGAAGGGCUCUGGC [Fiskers Ex 5 - 22] (puzzle: Exclusion 5) |  |  |  | 59.7 | 133 | 132 |
| GCCGGAUUUGUGAGGAUAUACCUAUGGAUACAUAGGUAGAAGGCACAUGAGGAUCACCCAUGUACCUCUCCGGC [JL-BMX4-4.19 Eli mod] (Eterna round: R97, puzzle: Brourd's mod of Exclusion 4) | 91.9 | 19.5 |  |  |  |  |
| GCCGGCUGAGGAUAUACAUGAGGAUCACCCAUGUGCUUCAGCCGGGAGACCGGCAUUGGUAGAAGGCAGCCGGC [Mod of lroppy 21 - Jieux - Exclusion 3] (Eterna round: R97, puzzle: Exclusion 3) | 14.5 | 14.7 |  |  |  |  |

| Sequence | apparent KD of MS2 coat protein (input ligand: FMN 200 uM) [nM] | apparent KD of MS2 coat protein (input ligand: none) [nM] | apparent KD of MS2 coat protein [1] [nM] | apparent KD of MS2 coat protein [2] [nM] | apparent KD of MS2 coat protein [3] [nM] | apparent KD of MS2 coat protein [4] [nM] |
| --- | --- | --- | --- | --- | --- | --- |
| GCCGGUCAUGUAGGAUAUGGCCGGCGGUGCCGGCCAGAAGGACAUGAGGAUCACCCAUGUGCCGGCCUUUGGCCGGCACCCGGC (Eterna round: R96, puzzle: Exclusion NG 1) | 10.3 | 17.2 | 8.76 |  |  |  |
| GCCGGUGAUCUAACCCGUAACAUGAGGAUCACCCAUGUAAGCUCGGGUUCUACAGAACCCGAUAUUAGCUCGUCAGU [Eternabot (Original) Solution 3] (Eterna round: R97, puzzle: Sensor, turn-off variant 1) | 599 | 894 |  |  |  |  |
| GCCGGUGUUGCGGAUAAGCUUUUCUGCUCGUUUUAUCGCACAUGAGGAUCACCCAUGUCAUCCGUCAGCAUGCAAAC [Aredardi] (puzzle: Sensor v3, turn-off variant 2) |  |  |  | 26 | 40.7 | 25.6 |
| GCCGUGUCAGGAUAUCGGCGGCUAUAAGUGUACGUACCUUUCGAGAAGGGACAUGAGGAUCACCCAUGUAAAUC [Eternabot (L1) Solution 25] (Eterna round: R97, puzzle: Exclusion 4) | 29.9 | 28.9 |  |  |  |  |
| GCCUAUGUGGAGGAUAUCGACUUCGAAAGAAGUCGAGAAGGCCACACAUGAGGAUCACCCAUGUGGUGCCAGGC [Omei Ex6 H13] (Eterna round: R97, puzzle: Exclusion 6) | 336 | 293 |  |  |  |  |
| GCCUCACAUGAGGAUCACCCAUGUCAGGAUAUACCCAUCCAGCGAAAUAAACGCUGUAGUAGAAGGGACAUGCA [Anlaat] (Eterna round: R97, puzzle: Exclusion 1) | 40.3 | 15.3 |  |  |  |  |
| GCCUCACUUGAGGAUCACCCAAGUCAGGAUAUUCACUGAACUGCGUAGCAAUUCGGCCGAAGAAGGGAUUCGGG [Veala] (Eterna round: R97, puzzle: Exclusion 1) | 75.2 | 107 |  |  |  |  |
| GCCUGUGCCCUAGGAUAUCGCCCAGCCAAUGGAUGAGAAGGAGGCGGGUGAAACAUGAGGAUCACCCAUGUAAACGCACAAGCA [Inusri] (Eterna round: R96, puzzle: Exclusion NG 1) | 102 | 22.7 | 14.5 |  |  |  |
| GCCUUAUCUGUCAGGAUAUACAAUAAAAUAAUUAAGUAGAAGGGACAUGAGGAUCACCCAUGUACAUUACAUUG [alecazam26] (Eterna round: R97, puzzle: Brourd's mod of Exclusion 4) | 67.4 | 17.9 |  |  |  |  |
| GCCUUGGGAGUCAGGAUAUACAAUAAAAUAAUUAAGUAGAAGGGACAUGAGGAUCACCCAUGUACAUUACAUUG [alecazam30] (Eterna round: R97, puzzle: Brourd's mod of Exclusion 4) | 48 | 13.3 |  |  |  |  |
| GCGAAAGAAAACAGGUGAAACAUGAGGAUCACCCAUGUCCUCAUUUGCUCGUCUUAUAAGCUAUGCGAAAGCAUAGC [Mat - Sensor v3 - turn-off var 1 - Eli Mod - D52] (puzzle: Sensor v3, turn-off variant 1) |  |  |  | 173 | 391 | 218 |
| GCGAAAGCAAGCAAGUGAAACAUGAGGAUCACCCAUGUCCUCAUUUGCUCGUCUUAUAAAAGCUAUCGAAAGAUAGC [Sensor 3, v1 - 1] (puzzle: Sensor v3, turn-off variant 1) |  |  |  | 11.6 | 172 | 13.5 |
| GCGAAAGCAAGCAAGUGAAACAUGAGGAUCACCCAUGUCCUCAUUUGCUCGUCUUGUAAGCUAUGCGAAAGCAUAGC [Sensor 3, v1 - 5] (puzzle: Sensor v3, turn-off variant 1) |  |  |  | 12.1 | 53.3 | 11.9 |
| GCGCAAACGCCAAAAGGCGAAACAACAUGAGGAUCACCCAUGUAGGAUAUCGAUUGCUUUGCAGUCGAGAAGGACAUAAUGCGC [JL ENG3 3.80 Mod 3] (Eterna round: R96, puzzle: Exclusion NG 3) |  |  | 11.9 |  |  |  |
| GCGCAAAGCUAGGAUAUCCAGGGAUCUUCCCGCGGAGAAGGAGCCACAUGAGGAUCACCCAUGUGGUGAUCCUG [eternacac ex6r4 sub7] (Eterna round: R97, puzzle: Exclusion 6) | 14.9 | 15.4 |  |  |  |  |
| GCGCACCUACCAAAAGGUAGGCCGACAUGAGGAUCACCCAUGUAGGAUAUCGAUUGCUUUGCAGUCGAGAAGGACAUGAUGCGC [JL ENG3 3.80 Mod 9] (Eterna round: R96, puzzle: Exclusion NG 3) | 35.8 | 19 | 11.6 |  |  |  |
| GCGCACUAAGUGAGGAUAUCGUUUAUUUAUAGGAUCGAGAAGGCACAUGAGGAUCACCCAUGUUAAACGUGCGC [JR_BMOE4_Sub100] (puzzle: Brourd's mod of Exclusion 4) |  |  |  |  | 15.7 |  |
